Results from the nanobody polyreactivity screen of Harvey et al. (2022).

assay: yeast display, Sf9 membrane polyspecificity reagent, FACS + sequencing; frameworks hold sequencing errors
How it was run: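 Synthetic nanobody libraries on Saccharomyces cerevisiae BJ5465 were galactose-induced for 36–48 hours, stained 1 hour at 4 °C with 10% biotinylated, detergent-solubilized Sf9 membrane reagent and enriched on streptavidin microbeads. FACS then separated cells into low and high (top ~1%) gates by anti-HA (expression) and streptavidin (reagent binding) fluorescence. Genes were colony-PCR amplified, MiSeq 2 × 250 sequenced and CDR-length filtered. A clone's polyreactivity label is that of its gate of origin.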

Sequence | polyreactivity (PSR sort gate)
QVQLVESGGGLVQAGGSLRLSCAASGSTFRYNDMGWYRQAPGKERELVADITSGGGTYYADSVKGRFTISRDNAKNTVYLQMNSLKPEDTAVYYCNADGFYDYPGWYGLVYWYDYWGQGTQVTVSS | high polyreactivity
QVQLVESGGGLVQAGGSLRLSCAASGSTFRYNLMGWYRQAPGKERELVAAISAVGSTYYADSVKGRFTISRDNAKNTVYLQMNSLKAEDTAVYYCAASYDWRAYRRDFYYWLTGDYWGQGTQVTVSS | low polyreactivity
QVQLVESGGGLVQAGGSLRLSCAASGSTFRYNVMGWYRQAPGKERELVATISYSGGSTNYADSVKGRFTISRDNAKNSVYLEIKSLKPVDTAVYYCAARYLYPFYGYWWYDYWGQGTQVTVSS | high polyreactivity
QVQLVESGGGLVQAGGSLRLSCAASGSTFRYYAMGWYRPAPGKERELVAVISTSGNTYYADSVKGRFTISRDNAKNTVYLQMNSLKPEDTAVYYCAARGVGGQISQEYDYWGQGTQVTVSS | low polyreactivity
QVQLVESGGGLVQAGGSLRLSCAASGSTFRYYAMGWYRQAPGKEREFVAAITASGVTTYYADSVKGRFTISRDNAKNTVYLQMNSLKPEDTAVYYCAARLYYNYRGRYNYWGQGTQVTVSS | high polyreactivity
QVQLVESGGGLVQAGGSLRLSCAASGSTFRYYAMGWYRQAPGKERELVAAISRSGGSTSYADSVKGRFTISRDNAKNTVYLQMNSLKPEDTAVYSCAARIYRKYYRYDYWGQGTQVTVSS | high polyreactivity
QVQLVESGGGLVQAGGSLRLSCAASGSTFRYYAMGWYRQAPGKERELVAAISTSGGRTYYADSVKGRFTISRDNAKNTVYLQMNSLKPEDTAVYYCNARESRGYSDQTWKYYYWGQGTQVTVSS | high polyreactivity
QVQLVESGGGLVQAGGSLRLSCAASGSTFRYYAMGWYRQAPGKERELVAAISWSGGSTYYADSVKGRFTISRDNAKNTVYLQMNSLKPEDTEVYYCNKAWFPYYYYRFDYWGQGTQVTVSS | high polyreactivity
QVQLVESGGGLVQAGGSLRLSCAASGSTFRYYAMGWYRQAPGKERELVASITWSGGSTYYADSVKGRFTISRDNAKNTVYLQMNSLNPEDTAVYYCAARQYIGSPPHRRRFDYWGKGTQVTVSS | high polyreactivity
QVQLVESGGGLVQAGGSLRLSCAASGSTFRYYAMGWYRQAPGKERELVAVISASGGTTYYADSVKGRFTISRDNAKNTVYLQMNSLKPEDTAVYYCAAREGWGFYYWGQGTQVTVSS | high polyreactivity
QVQLVESGGGLVQAGGSLRLSCAASGSTFRYYSMGWYRQAPGKERELVAVISKSGARTYYADSVKGRFTISRDNAKNTVYLQMNSLQPEETSVYYCNAVFKLDSHYAMCYWGQGTQVTVSS | high polyreactivity
QVQLVESGGGLVQAGGSLRLSCAASGSTFRYYVMGWYRPAPGKERELVAAITRGGSTNYADSVKGRFTISRDNAKNTVYLQMNSLKPEDTAVYYCAARGGWKRPFGYQLQYDYWGQGTQVTVSS | high polyreactivity
QVQLVESGGGLVQAGGSLRLSCAASGSTFRYYVMGWYRQAPGKERELVAAISSSGGSTYYADSVKGRFTISRDIAKNTVYLQMNSLKPEDTAVYYCARDKGYVSYRYNYWGQGTQVTVSS | high polyreactivity
QVQLVESGGGLVQAGGSLRLSCAASGSTFRYYVMGWYSQSPGKERELVAGISYRGGTTYYADSVKGRFTISRDNAKNTVYLQMYILKPEDTAVYYCNAETAAAQASYDRLYVLLDYWGQGTQVTVSS | low polyreactivity
QVQLVESGGGLVQAGGSLRLSCAASGSTFSANPMGWYRQAPGKERELVASISRRGGSTYYADSVKGRFTISRDNAKNTVYLQMNNLKPEDTAVYYCAAYYEYRRDYWGQGTQVTVSS | high polyreactivity
QVQLVESGGGLVQAGGSLRLSCAASGSTFSAYAMGGYRQAPGKERELVAVITSGASTYYADSVKGRFTISRDNAKNTVYLQMNSLKPEDTAVYYCAAYGYSYRGWRMDYWGQGTQVTVSS | high polyreactivity

Sequence | polyreactivity (PSR sort gate)
QVQLVESGGGLVQAGGSLRLSCAASGSTFSDNAMGWYRQAPGKERELVAANTSGGSTYYADSVKGRFTISRDNAKNTVYLQMNSLKPEDTAVYYCAADYWGQGTQVTVSS | low polyreactivity
QVQLVESGGGLVQAGGSLRLSCAASGSTFSDYPMGWYRQAPGKERELVAAISDSGSGTYYADSVKGRFTISRDNAKNTVYLQMNSLKPEDTAVYYCNTDPRFAMDWGQGTQVTVSS | low polyreactivity
QVQLVESGGGLVQAGGSLRLSCAASGSTFSDYTMGWYRQAPGKERELVAAITTIGGSTYYADSVKGRFTISRDNAKNTVYLQMNSLKPEDTAVYYCAASYYYPFEYYYWGQGTQVTVSS | low polyreactivity
QVQLVESGGGLVQAGGSLRLSCAASGSTFSENAMGWSRQAPGKERELVAAISWGGGSTYYADSVKGRFTISRDNAKNTVYLQMNSLKPEDTAVYYCNADVFDDYGYFESDYWGQGTQVTVSS | low polyreactivity
QVQLVESGGGLVQAGGSLRLSCAASGSTFSEYGMGWYRQAPGKERELVARITSGGSPYYADSVKGRFTISRDNAKYTVYLQMNSLKPEDTAVYYCATVKTRDYWGQGTQVTVSS | low polyreactivity
QVQLVESGGGLVQAGGSLRLSCAASGSTFSFYAMGWYRQAPGKERELVAAISWSDGSTYYADSVKGRFTISRDNAKNTVYLQMNSLKPEDTAVYYCAARRLAYIFYTVGYDYWGQGTQVTVSS | low polyreactivity
QVQLVESGGGLVQAGGSLRLSCAASGSTFSFYDMGWSRQAPGKEPELVAAITGSGGTTYYADSVKVRFTISRDNAKNTVYFQMNILKPEDTAFYYCAADSLESYPDYEYDFWGQGTQVTVSS | low polyreactivity
QVQLVESGGGLVQAGGSLRLSCAASGSTFSGNAMGWDRQAPGKESELVAAINSVRTYYADSVKGRFTISRDNAKNTVYLQMNSLKQEDTAVYYCNAEGYVSLSQYGVRRHSDYWGQGTQVNVSS | high polyreactivity
QVQLVESGGGLVQAGGSLRLSCAASGSTFSGNAMGWYRQAPGKERELVAAITSSGGSTYYADSVKGRFTISRDTAKNTVYLQMNSLKPEDTAVYYCAAKSRRTRRSYYWGQGTQVTVSS | high polyreactivity
QVQLVESGGGLVQAGGSLRLSCAASGSTFSGYAMGWYRQAPGKERELVAAISTSGGRTYYADSVKGRFTISRDNAKNTVYLQMNSLKPEDTAVYYCAAQYRGLYKGLGSWGQGTQVTVSS | high polyreactivity
QVQLVESGGGLVQAGGSLRLSCAASGSTFSGYAMGWYRQAPGKERELVAAITSGGSTNYADSVKGRFTISRDNAKNTVYLQMNSLKPEDTAVYYCAADSREVSTTAYYYWGQGTQVTVSS | low polyreactivity
QVQLVESGGGLVQAGGSLRLSCAASGSTFSGYAMGWYRQAPGKERELVAGIRLDGSRTYYADSVKGRFTISRDNAKNTVYLQMNSLKPEDTAVYYCAAPSGTYWTRREYWGQGSQVTVSS | low polyreactivity
QVQLVESGGGLVQAGGSLRLSCAASGSTFSGYVMGWYRQAPGKERELVAAISWGGSRTYYADSVKGRFTISRDNAKNTVYLQMNSLKPEDTAVYYCNAYTSYGTFFYWAWPYYYWGQGTQVTVSS | high polyreactivity
QVQLVESGGGLVQAGGSLRLSCAASGSTFSINAMGWYRQAPGKERELVAAISSGGSTYYADSVKGRFTISRDNAKNTVYLQMNSLKPEDTAVYYCAVDPPWTYWSTYRYDYWGQGTQVTVSS | low polyreactivity
QVQLVESGGGLVQAGGSLRLSCAASGSTFSIYGMGWYRQAPGKERELVAVITARDGSTYYADSVKGRFTISRDNAKNTVYLQMNSLKPEDTAVYYCAADIGPRYDSWGQGTQVTVSS | high polyreactivity
QVQLVESGGGLVQAGGSLRLSCAASGSTFSKNAMGWYRQAPGKERELVAAIRSRGGSTYYADSVKGRFTISRDNAKNTVYLQMNSLKPEDTAVYYCNKVRAYEGDYWGQGTQVTVTS | high polyreactivity
